Data from IntAct's records for PubMed 16374512.

B1: Retinoblastoma-associated protein (Homo sapiens), P06400 (parent)
chain: MPPKTPRKTAATAAAAAAEPPAPPPPPPPEEDPEQDSGPEDLPLVRLEFEETEEPDFTALCQKLKIPDHVRERAWLTWEKVSSVDGVLGGYIQKKKELWGICIFIAAVDLDEMSFTFTELQKNIEISVHKFFNLLKEIDTSTKVDNAMSRLLKKYDVLFALFSKLERTCELIYLTQPSSSISTEINSALVLKVSWITFLLAKGEVLQMEDDLVISFQLMLCVLDYFIKLSPPMLLKEPYKTAVIPINGSPRTPRRGQNRSARIAKQLENDTRIIEVLCKEHECNIDEVKNVYFKNFIPFMNSLGLVTSNGLPEVENLSKRYEEIYLKNKDLDARLFLDHDKTLQTDSIDSFETQRTPRKSNLDEEVNVIPPHTPVRTVMNTIQQLMMILNSASDQPSENLISYFNNCTVNPKESILKRVKDIGYIFKEKFAKAVGQGCVEIGSQRYKLGVRLYYRVMESMLKSEEERLSIQNFSKLLNDNIFHMSLLACALEVVMATYSRSTSQNLDSGTDLSFPWILNVLNLKAFDFYKVIESFIKAEGNLTREMIKHLERCEHRIMESLAWLSDSPLFDLIKQSKDREGPTDHLESACPLNLPLQNNHTAADMYLSPVRSPKKKGSTTRVNSTANAETQATSAFQTQKPLKSTSLSLFYKKVYRLAYLRLNTLCERLLSEHPELEHIIWTLFQHTLQNEYELMRDRHLDQIMMCSMYGICKVKNIDLKFKIIVTAYKDLPHAVQETFKRVLIKEEEYDSIIVFYNSVFMQRLKTNILQYASTRPPTLSPIPHIPRSPYKFPSSPLRIPGGNIYISPLKSPYKISEGLPTPTKMTPRSRILVSIGESFGTSEKFQKINQMVCNSDRVLKRSAEGSNPPKPLKKLRFDIEGSDEADGSKHLPGESKFQQKLAEMTSTRTRMQKQKMNDSMDTSNKEEK

Columns and labels:
e2f1_human E2F1, Q01094 [1] = variants of: B1; conditions: with e2f1_human E2F1, Q01094
Sequence of e2f1_human E2F1, Q01094 (Q01094 whole entry): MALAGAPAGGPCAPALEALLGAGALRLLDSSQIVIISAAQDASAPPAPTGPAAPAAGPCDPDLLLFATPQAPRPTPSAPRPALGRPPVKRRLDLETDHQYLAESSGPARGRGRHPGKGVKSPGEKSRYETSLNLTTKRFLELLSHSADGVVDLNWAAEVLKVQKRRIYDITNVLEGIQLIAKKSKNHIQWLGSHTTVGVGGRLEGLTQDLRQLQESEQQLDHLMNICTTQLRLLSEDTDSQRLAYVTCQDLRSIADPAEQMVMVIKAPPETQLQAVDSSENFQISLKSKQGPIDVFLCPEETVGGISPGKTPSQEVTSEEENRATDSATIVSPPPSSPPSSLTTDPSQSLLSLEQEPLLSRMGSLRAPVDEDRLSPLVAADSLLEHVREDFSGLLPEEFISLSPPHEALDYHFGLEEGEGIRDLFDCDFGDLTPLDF

e2f1_human E2F1, Q01094 [2] = variants of: B1; conditions: with e2f1_human E2F1, Q01094; remark: listed apart in the source

Variant | effect of a mutation on the interaction (e2f1_human E2F1, Q01094 [1]) | effect of a mutation on the interaction (e2f1_human E2F1, Q01094 [2])
K873Q | disrupting interaction | decreasing interaction
K874Q | disrupting interaction | decreasing interaction
